Test results as given in patent US20230242665A1 (SYSTIMMUNE, published 2023).

T1: TROP2 antigen (extracellular region of TROP2, expressed in 293F cells) (human, UniProt P09758 27-274)
T1 construct: extracellular domain; The antigen was coated on ELISA plates; For the Octet assay it was biotin-labelled and immobilized on streptavidin sensors; also called TROP2 protein
T1 sequence (looked up): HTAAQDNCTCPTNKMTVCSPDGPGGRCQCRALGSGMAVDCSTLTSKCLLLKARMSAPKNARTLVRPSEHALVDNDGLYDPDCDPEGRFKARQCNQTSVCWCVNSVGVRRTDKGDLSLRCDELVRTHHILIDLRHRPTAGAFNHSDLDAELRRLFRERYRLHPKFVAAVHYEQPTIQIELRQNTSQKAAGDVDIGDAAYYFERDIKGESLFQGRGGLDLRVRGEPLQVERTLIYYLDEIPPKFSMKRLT

T2: TROP2 on BXPC-3 and MCF-7 cells (human, UniProt P09758 27-323)
T2 construct: whole, on cells; also called BxPC-3 cells; MCF-7 cells (positive cells)
T2 sequence (looked up): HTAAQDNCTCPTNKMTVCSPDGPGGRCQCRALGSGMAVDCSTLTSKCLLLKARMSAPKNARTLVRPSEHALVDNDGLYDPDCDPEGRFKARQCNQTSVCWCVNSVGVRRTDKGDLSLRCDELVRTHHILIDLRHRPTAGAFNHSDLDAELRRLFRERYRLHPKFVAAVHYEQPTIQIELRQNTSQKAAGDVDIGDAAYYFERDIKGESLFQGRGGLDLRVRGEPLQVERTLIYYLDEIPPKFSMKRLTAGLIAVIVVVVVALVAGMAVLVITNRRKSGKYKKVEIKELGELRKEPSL

B1: 7F11 humanized antibody (antibody, V domains shown)
VH: QVQLVQSGAEVKKPGASVKVSCKASGYTFTDHVISWVRQATGQGLEWMGQIYPGSDNSYYAQKFQGRVTLTADKSINTAYMELSSLRSEDTAVYYCAREGYGYGKNGVGYAMDYWGQGTLVTVSS
VL: DIVMTQSPDSLAVSLGERATINCKASQSVSNDVVWYQQKPGQPPKLLIYYASNRYTGVPDRFSGSGYGTDFTLTISSLQAEDVAVYYCQQDYSSPWTFGGGTKVEIKR
notes: also called Hu7F11; hu7F11
B2: 4D3 humanized antibody (antibody, V domains shown)
VH: QVQLVQSGAEVKKPGASVKLSCKASGYTFTSFDINWVRQAPEQRLEWMGWIFPGDGNTKYSQKFQGRATITRDTSASTAYMELSSLRSEDTAVYYCVRGEALYYFDYWGQGTLVTVSS
VL: DIQMTQSPSSLSASVGDRVTITCRASQDINKYLAWYQQKPGKVPKLLIYSTSTLQSGVPSRFSGSGSGTDFTLTISSLQPEDVATYYCLQYDDLFTFGQGTKLEIKR
notes: also called Hu4D3; hu4D3
B3: 4D3 chimeric antibody (antibody, human IgG1, kappa, V domains shown)
VH: QVQLQQSGAELVKPGASVKLSCKASGYTFTSFDINWVRQRPEQGLEWIGWIFPGDGNTKSNEKFKGKATLTTDKSSSTAYMQLSRLTSEDSAVYFCVRGEALYYFDYWGPGTTLTVSS
VL: DIQMTQSPSSLSASLGGKVTITCKPSQDINKYIAWYQHKPGKGPRLLIHSTSTLQPGIPSRFSGSGSGRDYSFTISNLEPEDIATYYCLQYDDLFTFGSGTKLEIKR
notes: The entries begin with a leader (signal) peptide; also called ch4D3
B4: 7F11 chimeric antibody (antibody, human IgG1, kappa, V domains shown)
VH: QVQLQQSGPEVVKPGASVKMSCKASGYTFTDHVISWVKQRTGQGLEWIGQIYPGSDNSYYSEKLKDKATLTADKSSNTAYMQLVSLTSEDSAVYFCAREGYGYGKNGVGYAMDYWGQGTSVTVSS
VL: SIVMTQTPKFLLVSAGDRVTITCKASQSVSNDVVWYQQKPGQSPKLLIYYASNRYTGVPDRFTGSGYGTDFTFTISTAQAEDLAVYFCQQDYSSPWTFGGGTKLEIKR
notes: The entries begin with a leader (signal) peptide; also called ch7F11

How the values were obtained:
[1] = target: T1, TROP2 antigen (extracellular region of …); experiment: competition ELISA on TROP2-coated plate; competitor: 7F11-humanized-biotin
[2] = target: T2, TROP2 on BXPC-3 and MCF-7 cells; experiment: flow cytometry on MCF-7 cells, 1 hr at 4 C, FITC-labelled secondary antibody
[3] = target: T2, TROP2 on BXPC-3 and MCF-7 cells; experiment: flow cytometry on BXPC-3 cells, 1 hr at 4 C, FITC-labelled secondary antibody
[4] = target: T1, TROP2 antigen (extracellular region of …); experiment: BLI (ForteBio Octet), biotin-labelled antigen on streptavidin sensor, antibody in solution
Text: Pall ForteBio Octet optical analysis technology platform is used to evaluate the absolute affinity of antibody-antigen binding. In this method, the biotin-labeled antigen is immobilized on the surface of the streptavidin biosensor chip, the baseline is balanced for 180 seconds, and then it binds with the antibody diluted in the solution concentration gradient for 30 seconds, which increases the optical thickness of the chip, resulting in The wavelength shifts (Δλ), and then enters the dissociation phase of 30 sec. The interaction between the Trop2 antigen and the corresponding antibody is measured in real time, and the specificity of binding, binding rate, dissociation rate or sample concentration are precisely and accurately measured at each concentration. After summarizing the k-on and k-off values under at least 5 concentration gradients, the KD binding constant is obtained.

[5] = target: T1, TROP2 antigen (extracellular region of …); experiment: ELISA, TROP2-coated plate, anti-human Fc HRP
[6] = target: T1, TROP2 antigen (extracellular region of …); experiment: competition ELISA on TROP2-coated plate; competitor: 0.5 ng/ml 4D3-humanized-biotin
Protocol: The 4D3-humanized antibody was labeled with biotin, and the inflection point value of the binding curve was determined by ELISA to be 0.5 ng/ml. Prepare an ELISA blocking solution containing 0.5 ng/ml 4D3 biotin-labeled antibody, and configure 50 ug/ml of competing antibodies 4D3-chimeric and 4D3-humanized on the basis of this solution. Add the solution containing biotin-labeled antibody and competing antibody to A1˜A12, 150 ul per well, then aspirate 50 ul and add to B2˜B12, mix well with the pre-added biotin antibody solution with a volume of 100 ul, and then dilute 3 times in sequence To H1˜H12, incubate at 37° C. for 1 hr, then wash and incubate the […], incubate at 37° C. for 1 hr, then wash 3 times, perform color development for 25 min and read the value.
FIG. 12: 4D3-humanized-biotin antibodies compete with ch4D3 and hum4D3 antibodies at 0.02-50 ug/ml, respectively. The two competing antibodies show the same degree of competitive activity and bind to the same epitope.

[7] = target: T2, TROP2 on BXPC-3 and MCF-7 cells; experiment: flow cytometry on BXPC-3 cells, 1 hr at 4 C, FITC-labelled secondary antibody; remark: listed apart in the source
[8] = target: T1, TROP2 antigen (extracellular region of …); experiment: ELISA on a TROP2-coated plate, anti-human Fc HRP detection
Protocol: (§1) Dilute the chimeric antibody to a concentration of 50 ug/ml, add it to wells A1˜H1 on the TROP2-coated ELISA plate, and then perform a 3-fold horizontal dilution from A1 to A12; incubate at 37° C. for 1 hr, then rinse and add Mouse anti-human Fc HRP-labeled antibody was incubated at 37° C. for color development.

[9] = target: T1, TROP2 antigen (extracellular region of …); experiment: ELISA, TROP2-coated plate, chimeric antibody, anti-human Fc HRP
Protocol: as §1

Binder | EC50 [1] [µg/mL] | EC50 (read off the curve) [2] [µg/mL] | EC50 (read off the curve) [3] [µg/mL] | Kd [4] [nM] | koff [4] [s⁻¹] | kon [4] [M⁻¹ s⁻¹] | EC50 [5] [µg/mL] | EC50 [6] [µg/mL] | EC50 (read off the curve) [7] [µg/mL] | EC50 (read off the curve) [8] [µg/mL] | EC50 [9] [µg/mL]
B1 | 0.856 | ~0.04 | ~0.05 | 0.0994 | 1.85e-05 | 186000 | 0.0601 |  |  |  | 
B2 |  |  |  | 30.7 | 0.00428 | 139000 | 0.0502 | 0.326 | ~0.04 |  | 
B3 |  |  |  | 6.89 | 0.00162 | 235000 | 0.056 | 0.336 |  | ~0.05 | 0.047
B4 | 0.732 |  |  | 0.0611 | 1.45e-05 | 243000 | 0.061 |  |  | ~0.07 | 0.071
